Results taken from patent US20170355781A1 (CCAM BIOTHERAPEUTICS, published 2017).

T1: human CEACAM1 on cells (human, UniProt P13688 35-526)
T1 construct: whole, on cells; Used for endogenous CEACAM1 (526mel, Malme 3M, SKmel5, G361, NK 92MI, primary cells) and for 721.221 transfectants; also called hCEACAM1
T1 sequence (looked up): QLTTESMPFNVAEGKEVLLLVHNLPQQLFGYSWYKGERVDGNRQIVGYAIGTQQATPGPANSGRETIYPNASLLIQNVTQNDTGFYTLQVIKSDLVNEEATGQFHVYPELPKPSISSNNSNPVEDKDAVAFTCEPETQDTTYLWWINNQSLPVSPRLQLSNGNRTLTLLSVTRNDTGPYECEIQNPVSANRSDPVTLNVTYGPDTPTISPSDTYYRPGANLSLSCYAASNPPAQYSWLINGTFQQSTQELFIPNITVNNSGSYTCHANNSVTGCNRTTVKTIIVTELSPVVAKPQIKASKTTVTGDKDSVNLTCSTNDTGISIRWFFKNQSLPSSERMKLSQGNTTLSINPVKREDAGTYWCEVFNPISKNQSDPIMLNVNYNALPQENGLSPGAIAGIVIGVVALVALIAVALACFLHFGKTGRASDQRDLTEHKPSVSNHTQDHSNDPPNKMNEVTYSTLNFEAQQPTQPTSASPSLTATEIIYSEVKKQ

T2: recombinant purified human CEACAM1 (human, UniProt P13688 35-428, limits assumed)
T2 construct: also called purified hCEACAM1; Recombinant CEACAM1
T2 sequence (looked up): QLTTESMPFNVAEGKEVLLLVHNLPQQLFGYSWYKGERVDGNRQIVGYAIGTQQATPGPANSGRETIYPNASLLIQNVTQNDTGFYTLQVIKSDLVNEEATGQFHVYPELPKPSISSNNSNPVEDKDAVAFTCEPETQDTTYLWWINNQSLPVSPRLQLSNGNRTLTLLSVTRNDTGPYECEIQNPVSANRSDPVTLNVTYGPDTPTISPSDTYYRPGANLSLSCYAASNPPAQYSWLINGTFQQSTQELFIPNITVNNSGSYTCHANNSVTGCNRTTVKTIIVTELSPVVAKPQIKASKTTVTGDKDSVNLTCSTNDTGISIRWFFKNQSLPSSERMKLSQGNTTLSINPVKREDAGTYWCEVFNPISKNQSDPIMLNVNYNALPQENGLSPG

T3: CEACAM4 transiently expressed on HEK 293T cells (human, UniProt O75871 36-244)
T3 construct: whole, on cells
T3 sequence (looked up): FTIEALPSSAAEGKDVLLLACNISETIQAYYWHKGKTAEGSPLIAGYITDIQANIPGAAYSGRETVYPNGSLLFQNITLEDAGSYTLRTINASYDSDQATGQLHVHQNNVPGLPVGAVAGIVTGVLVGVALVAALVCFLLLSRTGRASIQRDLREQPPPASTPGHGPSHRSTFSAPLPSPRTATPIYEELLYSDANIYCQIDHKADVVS


Columns and labels:
human CEACAM1 on cells [1] = molecular target: T1, human CEACAM1 on cells
[2] = molecular target: chimeric molecule composed of the extracellular portion of human CEACAM1 fused to mouse z-chain, on BW cells (human; mouse, UniProt P13688 35-428; P24161 31-164); assay: cell-based or functional assay
[3] = molecular target: T2, recombinant purified human CEACAM1; assay: indirect ELISA on plate-bound purified human CEACAM1, double dilutions of CM10
Description: The binding specificity of CM10 to human CEACAM1 was tested in ELISA assay using purified human CEACAM1. Indirect ELISA using 23 double dilutions of CM10 were used to generate specific binding curve. The results shown in FIG. 2 represent average O.D. from triplicate±SE. Similar results were obtain from other ten independent experiments.

[4] = molecular target: T2, recombinant purified human CEACAM1; assay: SPR, Biacore 3000, antibody immobilized on CM5 chip, recombinant CEACAM1 flowed; three independent experiments
Description: (§1) Each antibody was immobilized onto a single channel of a CM5 sensor chip of Biacore3000 instrument by NHS-EDC coupling chemistry.
(§2) Recombinant CEACAM1 was flowed at 50 μl/min over the chip in various concentrations (0.19, 0.39, 0.78, 1.56, 3.12, 6.25, 12.5 and 25 nM). The running buffer was PBS-ET (10 mM p-buffer pH7.4, 150 mM NaCl, 3.4 mM EDTA and 0.005% tween 20).

[5] = molecular target: T2, recombinant purified human CEACAM1; assay: SPR, Biacore 3000, antibody immobilized on CM5 chip, recombinant CEACAM1 flowed; average of three independent experiments
Description: as §1, §2

[6] = molecular target: T3, CEACAM4 transiently expressed on HEK …; assay: flow cytometry, biotinylated CM10 plus Strep-Avidin APC on HEK 293T cells transiently expressing CEACAM-4
Description: A standard FACS protocol was used with CM10 conjugated to a Biotin molecule and Strep-Avidin APC as secondary agent. […] Empty histograms represent mAb staining while red histograms represent background staining. At least 10000 cells were used to analyze CM10 binding in each histogram. FAB was calculated by dividing the MFI of the stained cells in the MFI of the background staining.

human CEACAM1 on cells [7] = molecular target: T1, human CEACAM1 on cells; assay: blocking assay by FACS: SKMEL5 cells (CEACAM1 positive) pre-incubated with CM10 and washed, then soluble biotinylated CEACAM5 detected with streptavidin-APC
Description: CEACAM1 positive cell line (SKMel 5) was incubated with an isotype control or CM10 in various concentrations, unbound CM10 was washed twice, followed by incubation with or without soluble biotinylated CEACAM5. The binding of the biotinylated CEACAM5 to the cells was detected by a secondary strepavidin-APC and FACS analysis. The results represent the mean of duplicate wells±SE. Similar results were obtained in two other independent experiments.

mouse IL-2 secretion (ELISA), BW/221+ co-culture, no CM10 (human CEACAM1 on cells [1]) | IC50 (read off the curve) of the block of mouse IL-2 secretion in the BW/221+ co-culture [2] | EC50 (read off the curve) [3] | Kd [4] | Kd [5] | binding result [6] | IC50 (read off the curve) (human CEACAM1 on cells [7]) | Molecule
289 pg/mL | – | – | – | – | – | – | chimeric molecule composed of the extracellular portion of human CEACAM1 fused to mouse z-chain, on BW cells (from UniProt P13688 35-428; P24161 31-164) (receptor)
– | ~10 ng/mL | ~10 ng/mL | 4.07 to 5.05 nM | 4.56 nM | no binding (tested: 1 µg/ml) | ~100 ng/mL | chimeric monoclonal antibody CM10 (antibody, human IgG1, kappa, V domains shown, made in CHO cells; PE-conjugated CM10 was used for the QuantiBRITE count; also called CM10.S91; anti CEACAM1 mAb, CM10) VH: QVQLQQSGAELVRPGTSVKVSCKASGYAFTNNLIEWVKQRPGQGLEWIGVINPGSGDTNYNEKFKGKATLTADKSSNTAYMQLSSLTSDDSAVYFCARGDYYGGFAVDYWGQGTSVTVSS VL: DIQMTQTTSSLSASLGDRVTISCRTSQDIGNYLNWYQQKPDGTVKLLIYYTSRLHSGVPSRFSGSGSGTDYSLTISNLEQEDIATYFCQQGKSLPRTFGGGTKLEIKR
